From patent US20240376151A1, “STAPLED PEPTIDES AND METHODS THEREOF” (FOG PHARMACEUTICALS, INC., priority 2022, published 2024)

Target: T1, beta-catenin (Homo sapiens, UniProt P35222)
T1 construct: made in house; host or cells: E. coli BL21 (DE3) pLysS
T1 sequence (P35222 134-665): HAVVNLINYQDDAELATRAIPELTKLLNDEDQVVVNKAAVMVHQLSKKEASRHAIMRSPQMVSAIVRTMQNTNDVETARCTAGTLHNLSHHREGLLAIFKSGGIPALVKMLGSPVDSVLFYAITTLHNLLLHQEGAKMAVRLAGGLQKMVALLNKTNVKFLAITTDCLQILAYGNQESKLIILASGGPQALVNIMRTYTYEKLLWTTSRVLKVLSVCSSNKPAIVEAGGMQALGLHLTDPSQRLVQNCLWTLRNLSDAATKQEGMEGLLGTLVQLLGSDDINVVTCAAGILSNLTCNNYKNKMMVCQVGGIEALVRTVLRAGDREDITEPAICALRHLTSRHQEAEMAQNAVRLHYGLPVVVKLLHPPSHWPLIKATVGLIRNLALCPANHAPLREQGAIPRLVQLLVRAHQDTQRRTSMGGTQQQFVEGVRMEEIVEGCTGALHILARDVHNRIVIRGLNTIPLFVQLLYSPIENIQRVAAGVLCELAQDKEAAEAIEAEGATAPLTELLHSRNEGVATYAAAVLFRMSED
Assay: Phage Library Screening with NGS, beta-catenin
Type: binding
Conditions: for Target Concentration 10 (phage screen NGS readout): beta-catenin target concentration 10; for Target Concentration 10 (phage screen NGS readout) / Target Concentration 30 (phage screen NGS readout) / Target Concentration 100 (phage screen NGS readout) / Target Concentration 300 (phage screen NGS readout): no competitor; for Target Concentration 30 (phage screen NGS readout): beta-catenin target concentration 30; for Target Concentration 100 (phage screen NGS readout): beta-catenin target concentration 100; for Target Concentration 300 (phage screen NGS readout): beta-catenin target concentration 300; for Target Concentration 1000 (phage screen NGS readout): beta-catenin target concentration 1000

Row | Compound | Target Concentration BLANK (phage screen NGS readout) (first column) | Target Concentration BLANK (phage screen NGS readout) (fourth column) | Target Concentration BLANK (phage screen NGS readout) (second column) | Target Concentration BLANK (phage screen NGS readout) (third column) | Target Concentration 10 (phage screen NGS readout) | Target Concentration 30 (phage screen NGS readout) | Target Concentration 100 (phage screen NGS readout) | Target Concentration 300 (phage screen NGS readout) | Target Concentration 1000 (phage screen NGS readout) (first 1000 column) | Target Concentration 1000 (phage screen NGS readout) (second 1000 column)
1 | DPAEAICILAAHECWWD | 0 | 0 | 0 | 0 | 19 | 38 | 139 | 235 | 322 | 228
2 | DPAENTCSWAAEHCALV | 0 | 0 | 0 | 0 | 0 | 0 | 0 | 26 | 28 | 31
3 | DPAILECHMAAFECYIE | 0 | 0 | 0 | 0 | 8 | 2 | 20 | 59 | 86 | 41
4 | DPAHWSCEWAAEHCRLI | 0 | 0 | 0 | 0 | 0 | 1 | 0 | 31 | 19 | 64
5 | DPAMWICEHAALNCEIR | 0 | 0 | 0 | 0 | 2 | 6 | 46 | 158 | 145 | 152
6 | DPATIRCYEAAFMCQYW | 0 | 0 | 0 | 0 | 0 | 0 | 3 | 34 | 21 | 38
7 | DPAVLECHIAAWECRMD | 0 | 0 | 0 | 0 | 0 | 0 | 24 | 83 | 91 | 45
8 | CC[C@H](C)[C@H](NC(=O)[C@H](C)NC(=O)[C@H](C)NC(=O)[C@H](Cc1c[nH]c2ccccc12)NC(=O)[C@H](CCC(=O)O)NC(=O)[C@H](CS)NC(=O)[C@H](CC(C)C)NC(=O)[C@H](CCC(=O)O)NC(=O)[C@H](CO)NC(=O)[C@H](C)NC(=O)[C@@H]1CCCN1C(=O)[C@H](CC(=O)O)NC(C)=O)C(=O)N[C@@H](Cc1c[nH]cn1)C(=O)N[C@@H](CS)C(=O)N[C@@H](CC(=O)O)C(=O)N[C@@H](CC(C)C)C(=O)N[C@H](C(N)=O)C(C)C | 1 | 1 | 2 | 3 | 19 | 41 | 163 | 495 | 605 | 424
9 | DPAQFYCEHAALLCRWE | 0 | 0 | 0 | 0 | 0 | 0 | 5 | 11 | 15 | 11
10 | DPAEFYCEMAAVHCELL | 0 | 0 | 0 | 0 | 2 | 1 | 17 | 99 | 61 | 107
11 | DPAESDCILAAYICYVE | 0 | 0 | 2 | 0 | 0 | 1 | 22 | 51 | 69 | 40
12 | DPAWQNCTWAAFHCELL | 0 | 0 | 1 | 0 | 0 | 10 | 52 | 194 | 158 | 163
13 | DPAMVTCYEAAYVCQYF | 0 | 0 | 0 | 0 | 0 | 0 | 0 | 0 | 7 | 0
14 | DPAAQRCTWAAIHCELI | 0 | 0 | 0 | 2 | 0 | 0 | 7 | 39 | 25 | 93
15 | DPAVFECSLAAIDCLQI | 0 | 0 | 0 | 0 | 0 | 0 | 10 | 28 | 10 | 81
16 | DPAILECYEAAFECQYM | 0 | 0 | 0 | 0 | 7 | 8 | 20 | 49 | 41 | 39
17 | DPAILDCQLAAIDCVYT | 0 | 0 | 0 | 0 | 3 | 21 | 67 | 168 | 201 | 114
18 | DPAQSDCDWAAEHCNLI | 0 | 0 | 0 | 0 | 0 | 1 | 0 | 23 | 9 | 57
